Measurements as given in patent publication US20260176365A1 (SYNTHEKINE, published 2026).

These binders were tested against T1, mgp130 ECD antigen (mouse, UniProt Q00560 23-617) (assay: periplasmic extract ELISA (PE-ELISA) of phage clones).
T1 construct: Antigen of biopanning and PE-ELISA; The immunogen was an ECD-human IgG1 hinge-Fc fusion; also called ECD of mouse gp130; ngp130 ECD antigen (so in the source)
T1 sequence: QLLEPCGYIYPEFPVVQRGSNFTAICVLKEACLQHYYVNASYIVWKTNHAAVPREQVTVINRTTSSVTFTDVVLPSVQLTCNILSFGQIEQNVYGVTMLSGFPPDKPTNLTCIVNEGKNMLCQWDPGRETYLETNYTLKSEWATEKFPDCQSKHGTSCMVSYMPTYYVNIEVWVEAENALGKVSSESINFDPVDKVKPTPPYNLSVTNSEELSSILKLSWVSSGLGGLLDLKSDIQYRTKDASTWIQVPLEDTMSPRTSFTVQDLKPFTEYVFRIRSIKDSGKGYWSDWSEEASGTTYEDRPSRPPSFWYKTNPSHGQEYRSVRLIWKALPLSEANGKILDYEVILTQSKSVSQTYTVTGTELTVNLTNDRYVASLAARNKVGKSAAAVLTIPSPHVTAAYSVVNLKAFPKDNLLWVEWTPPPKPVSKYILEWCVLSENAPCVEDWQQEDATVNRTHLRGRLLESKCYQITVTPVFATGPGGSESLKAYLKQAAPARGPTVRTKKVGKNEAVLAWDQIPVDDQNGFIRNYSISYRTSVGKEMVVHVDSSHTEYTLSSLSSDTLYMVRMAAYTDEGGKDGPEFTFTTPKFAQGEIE

Binder	binding result
mgp130_VHH23 (VHH, As periplasmic extract of the phage clone; also called anti-mouse gp130 VHH; not shown: HA/His tag of the pMECS phagemid) VHH: QVQLQESGGGLVQPGGSLRLSCTASGFTFNSAHMKWERQPPGKGLEWVSFITPGGASTGYADSVKGRFTISRDNAKNTLYLQMNNLKTEDTAVYYCATGGLRGQGTQVTVSS	binds
mgp130_VHH44 (VHH, As periplasmic extract of the phage clone; also called anti-mouse gp130 VHH; not shown: HA/His tag of the pMECS phagemid) VHH: QVQLQESGGGLVQPGGSLRLSCTASGFTFNSAHLKWERQPPGKGLEWVSFITNGGASTGYADSVKGRFTISRDDAKNTLYLQMNNLKTEDTAVYYCATGGLRGQGTQVTVSS	binds
mgp130_VHH22 (VHH, As periplasmic extract of the phage clone; also called anti-mouse gp130 VHH; not shown: HA/His tag of the pMECS phagemid) VHH: QVQLQESGGGLVQPGGSLRLSCAVSGFTFSNYAMKWVRQAPGKGLEWVSSISGGGGATYYADSVKGRFTISRDNTKNTLYLQMNSLKTEDTAVYYCAAQNLDYRGQGTQVTVSS	binds
mgp130_VHH48 (VHH, As periplasmic extract of the phage clone; also called anti-mouse gp130 VHH; not shown: HA/His tag of the pMECS phagemid) VHH: QVQLQESGGALVQPGGSLRLSCAASGFTFSYYAMKWVRQAPGKGLEWVSSISGGGGATYYADSVKGRFTISRDNTNDTLYLQMNSLKTEDTAVYYCAAQNLDYRGQGTQVTVSS	binds
mgp130_VHH1 (VHH, As periplasmic extract of the phage clone; also called anti-mouse gp130 VHH; not shown: HA/His tag of the pMECS phagemid) VHH: QVQLQESGGGSVQAGGSLRLSCVISGFTYRQTFMGWFRQVLGKEREGVAAISTGGGSTVYADSVKGRFTISQDSSKNTVYLEMNGLKLEDTGMYYCAASTVITSVSINRGLYQYWGQGTQVTVSS	binds
mgp130_VHH32 (VHH, As periplasmic extract of the phage clone; also called anti-mouse gp130 VHH; not shown: HA/His tag of the pMECS phagemid) VHH: QVQLQESGGGSVQAGGSLRVSCVVSGFTYRQTFMGWFRQVPGKEREGVAAISTGGGSTVYADSVKGRFTISQDSSKNTVYLEMNGLKLEDTGMYYCAASTVITSVSINRNLYQYWGQGTQVTVSS	binds
mgp130_VHH5 (VHH, As periplasmic extract of the phage clone; also called anti-mouse gp130 VHH; not shown: HA/His tag of the pMECS phagemid) VHH: QVQLQESGGGSVQAGGSLRLSCVISGFTYRQTFMGWFRQVVGKEREGVAAISTGGGSTIYADSVKGRFTISQDSSKDTVYLEMNGLKLEDTGMYYCAASTVITSESINRNLYQYWGQGTQVTVSS	binds
mgp130_VHH19 (VHH, As periplasmic extract of the phage clone; also called anti-mouse gp130 VHH; not shown: HA/His tag of the pMECS phagemid) VHH: QVQLQESGGGSVQAGGSLRLSCGISGFTYRPTFMGWFRQVLGKEREGVAAISTGGGSSVYADSVKGRFTVSQDSSKNTVYLEMNGLKLEDTGMYYCAASTVITSVSINRALYQYWGQGTQVTVSS	binds
mgp130_VHH45 (VHH, As periplasmic extract of the phage clone; also called anti-mouse gp130 VHH; not shown: HA/His tag of the pMECS phagemid) VHH: QVQLQESGGGSVQAGGSLRVSCVISGFTYRQTFMGWFRQVPGKEREGVAAISTGGGSTIYANSVKGRFTISQDSSKNTVYLEMNGLKLEDTGMYYCAASTVITSVSINRGLYQYWGQGTQVTVSS	binds
mgp130_VHH41 (VHH, As periplasmic extract of the phage clone; also called anti-mouse gp130 VHH; not shown: HA/His tag of the pMECS phagemid) VHH: QVQLQESGGGSVQAGGSLRLSCGISGFTYRPTFMGWFRQVLGKEREGVAAISTGGGSTVYADSVKGRFTISQDSSKDTVYLEMNGLKLEDTGMYYCAASTVITSESINRNLYQYWGQGTQVTVSS	binds
mgp130_VHH21 (VHH, As periplasmic extract of the phage clone; also called anti-mouse gp130 VHH; not shown: HA/His tag of the pMECS phagemid) VHH: QVQLQESGGGSVQAGGSLRVSCQISGFTYRQTFMGWFRQVPGKEREGVAAISTGGGSTVYADSVKGRFTISQDSSKNTVYLEMNGLKLEDTGMYYCAASTVITSPSINRNLYQYWGQGTQVTVSS	binds
mgp130_VHH39 (VHH, As periplasmic extract of the phage clone; also called anti-mouse gp130 VHH; not shown: HA/His tag of the pMECS phagemid) VHH: QVQLQESGGGSVQAGGSLRLSCVISGLTYKQTFMGWFRQVPGKEREGVAAISTGGGSTVYADSVKGRFTISQDNSKNTVYLEMNGLKLEDTGMYYCAASTVITSVSINRYLYQWWGQGTQVTVSS	binds
mgp130_VHH27 (VHH, As periplasmic extract of the phage clone; also called anti-mouse gp130 VHH; not shown: HA/His tag of the pMECS phagemid) VHH: QVQLQESGGGSVQAGGSLRVSCVISGFTYRQTFMGWFRQVPGKEREGVAAISTGGGSTVYADSVKGRFTISQDSSKNTVYLEMNGLKLEDTGMYYCAASTVITSVSINRGLYQYWGQGTQVTVSS	binds
mgp130_VHH24 (VHH, As periplasmic extract of the phage clone; also called anti-mouse gp130 VHH; not shown: HA/His tag of the pMECS phagemid) VHH: QVQLQESGGGSVQAGGSLRLSCVISGFTYRPTFMGWFRQVLGKEREGVAAITTGGGSTLYADSVKGRFTISQDSSKNTVYLEMNGLKLEDTGMYYCAATTVITSVSINRNLYQYWGQGTQVTVSS	binds
mgp130_VHH8 (VHH, As periplasmic extract of the phage clone; also called anti-mouse gp130 VHH; not shown: HA/His tag of the pMECS phagemid) VHH: QVQLQESGGGSVQAGGSLRLSCVISGFTYRPTFMGWFRQVLGKEREGVAAITTGGGSTVYADSVKGRFTISQDSSKNTVYLEMNGLKLEDTGMYYCAATTVITSVSINRNLYQYWGQGTQVTVSS	binds
mgp130_VHH37 (VHH, As periplasmic extract of the phage clone; also called anti-mouse gp130 VHH; not shown: HA/His tag of the pMECS phagemid) VHH: QVQLQESGGGPVQAGGSLRLSCVISGFTYRQTFMGWFRQVPGKEREGVAAISTGGGSTVYADSVKGRFTISQDSSKNTVYLEMNGLKLEDTGMYYCAASTVITSESINRGLYQYWGQGTQVTVSS	binds
mgp130_VHH2 (VHH, As periplasmic extract of the phage clone; also called anti-mouse gp130 VHH; not shown: HA/His tag of the pMECS phagemid) VHH: QVQLQESGGGSVQAGGSLRLSCAISGFTYRQTFMGWFRQVVGKEREGVAAISTGGGSTVYADSVKGRFTISQDSSKDTVYLEMNGLKLEDTGMYYCAASTVITSESINRNLYQYWGQGTQVTVSS	binds
mgp130_VHH31 (VHH, As periplasmic extract of the phage clone; also called anti-mouse gp130 VHH; not shown: HA/His tag of the pMECS phagemid) VHH: QVQLQESGGGSVQAGGSLRLSCVISGFTYRQTFMGWFRQVVGKEREGVAAISTGGGSTVYADSVKGRFTISQDSSKDTVYLEMNGLKLEDTGMYYCAASTVITSESINRNLYQYWGQGTQVTVSS	binds
mgp130_VHH36 (VHH, As periplasmic extract of the phage clone; also called anti-mouse gp130 VHH; not shown: HA/His tag of the pMECS phagemid) VHH: QVQLQESGGGSVQAGGSLRLSCVISGFTYRQTFMGWFRQVVGKEREGVAAISTGGGSMVYADSVKGRFTISQDSSKDTVYLEMNGLKLEDTGMYYCAASTVITSESINRNLYQYWGQGTQVTVSS	binds
mgp130_VHH14 (VHH, As periplasmic extract of the phage clone; also called anti-mouse gp130 VHH; not shown: HA/His tag of the pMECS phagemid) VHH: QVQLQESGGGSVQAGGSLRLSCVISGFTYKQTFMGWFRQVPGKEREGVAAISTGGGSTVYADSVKGRFTISQDSSKNTVYLEMNGLKLEDTGMYYCAASTVITSVSINRGLYQYWGQGTQVTVSS	binds
mgp130_VHH9 (VHH, As periplasmic extract of the phage clone; also called anti-mouse gp130 VHH; not shown: HA/His tag of the pMECS phagemid) VHH: QVQLQESGGGSVQAGGSLRLSCGISGFTYRPTFMGWFRQVLGKEREGVAAISTGGGSSVYADSVKGRFTVSQDSSKNTVYLEMNGLKLEDTGMYYCAASTVITSVSINRGLYQYWGQGTQVTVSS	binds
mgp130_VHH26 (VHH, As periplasmic extract of the phage clone; also called anti-mouse gp130 VHH; not shown: HA/His tag of the pMECS phagemid) VHH: QVQLQESGGGSVQAGGSLRLSCVISGFVYKQTFMGWFRQVPGKEREGVAAISTGGGSTVYADSVKGRFTISQDSSKNTVYLEMNGLKLEDTGMYYCAASTVITSVSINRGLYQYWGQGTQVTVSS	binds
mgp130_VHH25 (VHH, As periplasmic extract of the phage clone; also called anti-mouse gp130 VHH; not shown: HA/His tag of the pMECS phagemid) VHH: QVQLQESGGGSVQAGGSLRLSCVISGFTYKQTFMGWFRQVPGKEREGVAAISTGGGSTVYADSVKGRFTISQDSSKNTVYLEMNGLKLEDTGMYYCAASTVITSVTINRGLYQYWGQGTQVTVSS	binds
mgp130_VHH15 (VHH, As periplasmic extract of the phage clone; also called anti-mouse gp130 VHH; not shown: HA/His tag of the pMECS phagemid) VHH: QVQLQESGGGSVQAGGSLRLSCVISGFTYRQTFMGWFRQVVGKEREGVAAISTGGGSTVYADSVKGRFTISQDSSKDTVYLEMNGLKLEDTGMYYCAASTVITSESIYRNLYQYWGQGTQVTVSS	binds
